The text below walks through data of patent US20070148201A1 (Pieris, published 2007).

For test [1], the target named is T1, RNaseB (UniProt P61823 27-150).
T1 construct: also called unrelated control protein RNaseB
T1 sequence (looked up): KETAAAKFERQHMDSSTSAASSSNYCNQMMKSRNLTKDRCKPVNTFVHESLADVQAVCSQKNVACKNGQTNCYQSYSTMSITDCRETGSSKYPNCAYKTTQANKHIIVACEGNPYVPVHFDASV
Kind of test: ELISA, RNaseB coated on plate, anti-T7-HRP detection. The procedure:
(§1) Afterwards, the wells were washed and blocked as described in Example 8.
(§2) Then, a dilution series of the BBP muteins from Example 11 in SA-buffer was prepared in PBST starting from 1000 nM concentration and incubated for 1 h at room temperature. Subsequently, plates were washed again five times, anti-T7 monoclonal antibody-HRP-conjugate was added and incubated for 1 hour at room temperature followed by washing and addition of fluorogenic HRP-substrate QuantaBlu™ as described in Example 8. After 10 minutes at room temperature fluorescence was excited at a wavelength of 320 nm (±12.5 nm) and measured at 430 nm (±17.5 nm) in a GENiosPlus plate reader.

The target in test [2] is T2, type I horse ferritin (horse, UniProt P02791 2-175; Q8MIP0 2-182, limits assumed).
T2 construct: the natural protein is a shell of light and heavy chains
Kind of test: ELISA, ferritin coated on plate, mutein titrated from 1000 nM, anti-T7-HRP detection, apparent KD from curve fit. The method, then:
as §1, §2
The resulting binding curves were fitted by non-linear least squares regression as described in Example 8 and are depicted in FIG. 8. The values obtained for the apparent dissociation constants of the complexes between the BBP muteins and the prescribed target ferritin are summarized in Table 5.
In general terms: In an ELISA, binding on a coated surface is turned into a signal by an enzyme label.

Test [3] has as its target T2, type I horse ferritin. Kind of test: high-throughput ELISA screening, crude cell extract, ferritin or aldolase coated on plate, anti-T7-HRP detection; Fer-N21 is one of the clones taken on from these 14. The method, then:
(§3) For the detection of binding, these cell extracts were tested for their reactivity on the prescribed target type I horse ferri tin as well as the unrelated control protein aldolase in ELISA experiments. Therefore, wells of black Fluotrac 600 ELISA plates (Greiner; 384 well) were coated overnight with 20 μl of a solution of ferritin (Sigma) or aldolase (Roche) at 4° C., each at a concentration of 20 μg/ml in PBS. Plates were washed five times with 100 μl PBST/0.05 per well with an automated ELISA plate washer (Molecular Devices) leaving a residual volume of 10 μl of the washing buffer in each well after the last washing step. Residual binding sites were blocked by incubation with 100 μl PBST/0.05 containing 2% w/v BSA for 2 h at room temperature. Afterwards, plates were again washed five times as described above.
(§4) For complex formation between the BBP muteins and the immobilized proteins, the wells were incubated with 10 μl of the blocked cell extract from above for 1 hour at room temperature. […] After 60 minutes at room temperature fluorescence was excited at a wavelength of 320 nm (±12.5 nm) and measured at 430 nm (±17.5 nm) in a GENiosPlus plate reader (Tecan).

For test [4], the target named is T2, type I horse ferritin. Briefly: high-throughput ELISA screening, crude cell extract, ferritin or aldolase coated on plate, anti-T7-HRP detection; Fer-I21 is one of the clones taken on from these 14. The procedure:
as §3, §4

Test [5] concerns the target T2, type I horse ferritin. Kind of test: high-throughput ELISA screening, crude cell extract, ferritin or aldolase coated on plate, anti-T7-HRP detection; Fer-O20 is one of the clones taken on from these 14. The procedure:
as §3, §4

For test [6], the target named is T3, extracellular domain of human CD47 (amino acids 1 to 119 of the mature protein, Cys15 to Ala) with Strep-tag … (human, UniProt Q08722 19-139).
T3 construct: Produced in the periplasm of E. coli JM83, purified by the Strep-tag II; 1-119 counts on the mature CD47; also called recombinant CD47
Kind of test: ELISA, CD47 coated on plate, mutein titrated from 2000 nM, anti-T7-HRP detection, apparent KD from curve fit. The procedure:
For the detection of binding in an ELISA the wells of a black Fluotrac 600 microtiter plate (Greiner; 384 well) were filled each with 20 μl of a solution of the intended recombinant protein target CD47 (produced as described in Example 2) or the unrelated control protein BSA both at a concentration of 50 μg/ml in PBS and were incubated for 1 h at ambient temperature. After washing five times with 100 μl PBST/0.05 per well employing an automated ELISA plate washer, the wells were filled with 100 μl PBST/0.05 3% w/v non-fat dry milk powder (Vitalia), in order to saturate unspecific binding sites and incubated for one hour at room temperature. After blocking, the microtiter plate was washed two times with 100 μl PBST/0.05 as described above.
Then a dilution series of the muteins in SA-buffer from Example 7 was prepared in PBST starting from 2000 nM concentration and incubated for 1 h at room temperature. Subsequently, plates were washed again five times like above and 20 μl of an anti-T7 monoclonal antibody-HRP-conjugate, diluted 1:1000 in PBST, was added to each well and incubated for 1 hour at room temperature. […] After 10 minutes at room temperature fluorescence was excited at a wavelength of 320 nm (±12.5 nm) and measured at 430 nm (±17.5 nm) in a GENiosPlus plate reader. […]

Test [7] concerns the target T1, RNaseB. Briefly: ELISA: RNaseB coated on the plate as control, BBP mutein titrated 0-1000 nM, detected with anti-T7 antibody-HRP, fluorescence (Example 12). The method, then: as §1, §2
Test [8] addresses T2, type I horse ferritin. Kind of test: high-throughput ELISA screening, crude cell extract, ferritin or aldolase coated on plate, anti-T7-HRP detection; Fer-P4 is one of the clones taken on from these 14. The method, then:
as §3, §4

The target in test [9] is T2, type I horse ferritin. Kind of test: high-throughput ELISA screening, crude cell extract, ferritin or aldolase coated on plate, anti-T7-HRP detection; Fer-D24 is one of the clones taken on from these 14. The procedure:
as §3, §4

T2 sequence (P02791 2-175 limits assumed, chain 1 of 2): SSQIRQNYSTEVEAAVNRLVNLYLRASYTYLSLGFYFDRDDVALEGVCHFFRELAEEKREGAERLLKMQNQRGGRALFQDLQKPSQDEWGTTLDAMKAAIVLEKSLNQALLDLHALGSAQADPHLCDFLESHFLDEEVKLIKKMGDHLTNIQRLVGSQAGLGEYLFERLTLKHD
T2 sequence (Q8MIP0 2-182 limits assumed, chain 2 of 2): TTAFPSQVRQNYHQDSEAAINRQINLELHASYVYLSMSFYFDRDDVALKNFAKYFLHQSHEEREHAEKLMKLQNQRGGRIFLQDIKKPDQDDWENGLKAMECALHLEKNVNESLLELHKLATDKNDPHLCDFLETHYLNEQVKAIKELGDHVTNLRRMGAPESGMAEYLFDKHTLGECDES
T3 sequence (Q08722 other isoform, or with tags, fused parts or gaps limits assumed): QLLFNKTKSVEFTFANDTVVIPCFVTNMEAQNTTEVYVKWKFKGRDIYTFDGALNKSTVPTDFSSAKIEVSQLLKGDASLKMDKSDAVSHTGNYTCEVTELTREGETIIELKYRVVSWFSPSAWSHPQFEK

B1: BBP mutein Fer-N21 (designed binder)
chain: DVYHDGACPEVKPVDNFDWSQYHGKWWEVAKYPSNRGSKGKCGWAEYTPEGKSVKVSRYDVIPRLEAFMEGTAYPVGDSKIGKIYHSRTSKGKTKKTVFNVLSTDNKNYIIGYSCIYNERYKGHYDHVWVLSRSMVLTGEAKTAVENYLIGSPVVDSQKLVYSDFSEAACKVNN
notes: Tested as expressed from pBBP47: C-terminal T7 tag followed by Strep-tag II
Turning to B1, the binding result with RNaseB [1] is “no binding (tested: dilution series starting from 1000 nM)”. The Kd with type I horse ferritin [2] amounted to 0.029 µM. Moreover, the “signal-to-control ratio (ferritin against aldolase)” value (“signal-to-control ratio” below) with type I horse ferritin [3] was more than 5.

B2: BBP mutein Fer-I21 (designed binder)
chain: DVYHDGACPEVKPVDNFDWSQYHGKWWEVAKYPNQKEKWGKCGWAEYTPEGKSVKVSNYHVIKRPERFIEGTAYPVGDSKIGKIYHSLTRLGKTKENVFNVLSTDNKNYIIGYYCLYPEGWKGHKDFVWVLSRSMVLTGEAKTAVENYLIGSPVVDSQKLVYSDFSEAACKVNN
notes: as for B1
Regarding B2, in the test with RNaseB [1], the binding result is reported as “no binding (tested: dilution series starting from 1000 nM)”. Besides, the Kd with type I horse ferritin [2] is 0.026 µM. Besides, the “signal-to-control ratio” value with type I horse ferritin [4] was more than 5.

B3: BBP mutein Fer-O20 (designed binder)
chain: DVYHDGACPEVKPVDNFDWSQYHGKWWEVAKCPSGKGRAGKCGWAEFTPEGKSVKVSRYDVIPAPELFMEGTAYPVGDPKIGKIYHSRTNKGLTKKTVFNVLSTDNKNYIIGYSCKYGEDQKGHKDHVWVLSRSMVLTGEAKTAVENYLIGSPVVDSQKLVYSDFSEAACKVNN
notes: as for B1
Regarding B3, the binding result with RNaseB [1] is on record as “no binding (tested: dilution series starting from 1000 nM)”. Moreover, in the test with type I horse ferritin [2], the Kd came to 0.049 µM. For the same molecule, the “signal-to-control ratio” value in the test with type I horse ferritin [5] is more than 5.

B4: BBP mutein CD47-G6 (designed binder)
chain: DVYHDGACPEVKPVDNFDWSQYHGKWWEVAKYPNRREKFGKCGWAEYTPEGKSVKVSNYHVIRWGERFIEGTAYPVGDSKIGKIYHSLTLPGYTKENVFNVLSTDNKNYIIGYYCKYLERLKGHADFVWVLSRSMVLTGEAKTAVENYLIGSPVVDSQKLVYSDFSEAACKVNN
On to B4, for which the Kd in test [6] amounted to 0.033 µM.

B5: BBP mutein Fer-P4 (designed binder)
chain: DVYHDGACPEVKPVDNFDWSQYHGKWWEVAKYPSKGGEKGKCGWAEYTPEGKSVKVSRYDVILSSEPFMEGTAYPVGDSKIGKIYHSRTKKGETKKTVFNVLSTDNKNYIIGYSCGYCECRKGHADHVWVLSRSMVLTGEAKTAVENYLIGSPVVDSQKLVYSDFSEAACKVNN
notes: as for B1
For the molecule B5, the Kd with type I horse ferritin [2] came out at 0.031 µM. Moreover, the binding result in the test with RNaseB [7] is reported as “no binding (tested: 1000 nM)”. For the same molecule, in the test with type I horse ferritin [8], the “signal-to-control ratio” value was more than 5.

B6: BBP mutein Fer-D24 (designed binder)
chain: DVYHDGACPEVKPVDNFDWSQYHGKWWEVAKYPSKKGKQGKCGWAEYTPEGKSVKVSRYDVIPCLESFMEGTAYPVGDSKIGKIYHSRTKPGRTKKTVFNVPSTDNKNYIIGYSCVYPEGRKGHRDHVWVLSRSMVLTGEAKTAVENYLIGSPVVDSQKLVYSDFSEAACKVNN
notes: Tested only in the screening ELISA (crude extract, pBBP47: C-terminal T7 tag and Strep-tag II); KD not given
B6: the “signal-to-control ratio” value with type I horse ferritin [9] was more than 5.
